In one test the target is T1, CD22 on Raji细胞 (UniProt P20273 20-847, limits assumed).
T1 construct: whole, on cells; also called 天然细胞表面CD22蛋白
T1 sequence (looked up): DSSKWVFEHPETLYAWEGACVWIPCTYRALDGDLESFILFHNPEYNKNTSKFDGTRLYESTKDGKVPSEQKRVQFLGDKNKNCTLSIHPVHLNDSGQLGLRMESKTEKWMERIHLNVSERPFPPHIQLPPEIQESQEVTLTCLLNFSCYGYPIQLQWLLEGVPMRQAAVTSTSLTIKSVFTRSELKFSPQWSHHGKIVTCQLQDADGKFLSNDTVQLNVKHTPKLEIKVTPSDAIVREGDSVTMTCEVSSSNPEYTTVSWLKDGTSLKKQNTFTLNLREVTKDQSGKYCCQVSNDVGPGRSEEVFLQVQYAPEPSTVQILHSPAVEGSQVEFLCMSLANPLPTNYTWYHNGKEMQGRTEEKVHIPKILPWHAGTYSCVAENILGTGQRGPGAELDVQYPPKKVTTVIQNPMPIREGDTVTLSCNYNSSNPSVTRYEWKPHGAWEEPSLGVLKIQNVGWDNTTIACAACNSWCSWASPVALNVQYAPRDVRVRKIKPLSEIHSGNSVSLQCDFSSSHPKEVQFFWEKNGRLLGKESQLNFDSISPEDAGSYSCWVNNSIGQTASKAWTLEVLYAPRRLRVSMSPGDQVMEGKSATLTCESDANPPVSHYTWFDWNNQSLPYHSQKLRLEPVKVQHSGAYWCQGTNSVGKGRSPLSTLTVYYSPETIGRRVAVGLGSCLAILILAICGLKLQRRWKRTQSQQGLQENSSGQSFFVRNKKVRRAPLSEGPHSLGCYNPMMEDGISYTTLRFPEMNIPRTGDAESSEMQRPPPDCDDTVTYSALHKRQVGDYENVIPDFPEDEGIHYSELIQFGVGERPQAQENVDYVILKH
Kind of test: flow cytometry on Raji cells, antibody at several concentrations. On the technique in general: In flow cytometry, cells or beads pass a laser one at a time.

Test [1] concerns the target CD22 FC融合标签蛋白 (UniProt P20273). The experiment in a line: ELISA, purified antibody at dilution 1K on coated CD22 protein (1 μg/ml). (In general: ELISA stands for enzyme-linked immunosorbent assay.)
Test [2] concerns the target CD22 FC融合标签蛋白 (UniProt P20273). Kind of test: indirect ELISA, B cell clone supernatant on coated CD22 protein (1 μg/ml).
Test [3] deals with CD22 FC融合标签蛋白 (UniProt P20273). The experiment in a line: ELISA, purified antibody at dilution 25K on coated CD22 protein (1 μg/ml).
The target of test [4] is CD22 FC融合标签蛋白 (UniProt P20273). Kind of test: ELISA, purified antibody at dilution 125K on coated CD22 protein (1 μg/ml).
The target in test [5] is CD22 FC融合标签蛋白 (UniProt P20273). Kind of test: ELISA, purified antibody at dilution 625K on coated CD22 protein (1 μg/ml).
For test [6], the target named is CD22 FC融合标签蛋白 (UniProt P20273). Kind of test: ELISA, purified antibody at dilution 3125k on coated CD22 protein (1 μg/ml).
Test [7] has as its target CD22 FC融合标签蛋白 (UniProt P20273). The experiment in a line: ELISA, purified antibody at dilution 15625k on coated CD22 protein (1 μg/ml).

The text below walks through data of patent publication CN115433280A (SUZHOU DIMA BIOTECHNOLOGY CO LTD, dated 2022).

B1: 命名为9A3的兔重组单克隆抗体 (antibody, V domains shown)
V domain 1: QSVEESGGRLVTPGTPLTLTCTVSGIDLSSYWMNWVRQAPGKGLEWIGIIWSDDNTYYANWAKGRFTISKTSSTTVDLTITSPTTEDTATYFCARGYVGDIWGPGTLITVS
V domain 2: ALVMTQTPSSVDVAVGGTVTIRCQASQNIYSGLAWYQQKPGQPPKLLIYGASNLASGVSSRFKGSGSGTQFTLTISGVECADAATYYCQQTYTSDNVDNPFGGGTEVVVE
notes: Rabbit recombinant monoclonal antibody expressed in 293 cells
As for B1, the binding result in the test with CD22 on Raji细胞 was “binds”. Further, the ELISA reading (OD) at dilution 1K with CD22 FC融合标签蛋白 [1] was 3.95. The molecule further returned an OD450 in the test with CD22 FC融合标签蛋白 [2] of 2.12. Further, in the test with CD22 FC融合标签蛋白 [3], the ELISA reading (OD) at dilution 25K was 3.1. In the test with CD22 FC融合标签蛋白 [4], this molecule yielded an ELISA reading (OD) at dilution 125K of 1.33. In the test with CD22 FC融合标签蛋白 [5], the ELISA reading (OD) at dilution 625K is 0.382. In the test with CD22 FC融合标签蛋白 [6], this molecule came in with an ELISA reading (OD) at dilution 3125k of 0.18. This molecule displayed an ELISA reading (OD) at dilution 15625k with CD22 FC融合标签蛋白 [7] of 0.12.

B2: 命名为10F9的兔重组单克隆抗体 (antibody, V domains shown)
VH: QSVEESGGRLVTPGTPLTLTCTVSGFSLNTDAMIWVRQAPGKGLEYIGIIGSSGSAFFASWAKGRFTISKTSTTVDLTIISPTTEDTATYFCARFTGYGGYGRGGMDPWGPGTLVTVSS
VL: AQVLTQTPSSVSAAVGGTVTINCQSSESVHNNNWLSWYQQKPGQPPKLLIYKASTLASGVPSRFSGSGSGTQFTLTISGVQCDDAATYYCQATYNSGGWYVAFGGGTEVVVK
notes: as for B1
Take B2: the binding result with CD22 on Raji细胞 is given as “binds”. The molecule further registered an OD450 with CD22 FC融合标签蛋白 [2] of 1.86. Besides, in the test with CD22 FC融合标签蛋白 [3], the ELISA reading (OD) at dilution 25K came to 3.37. This molecule came in with an ELISA reading (OD) at dilution 125K with CD22 FC融合标签蛋白 [4] of 1.39. In the test with CD22 FC融合标签蛋白 [5], the ELISA reading (OD) at dilution 625K worked out at 0.405. The molecule also showed an ELISA reading (OD) at dilution 3125k in the test with CD22 FC融合标签蛋白 [6] of 0.171. Moreover, the ELISA reading (OD) at dilution 15625k with CD22 FC融合标签蛋白 [7] turned out to be 0.125.

B3: 命名为8B5的兔重组单克隆抗体 (antibody, V domains shown)
VH: QEQLKESGGGLVTPGGSLTLTCTVSGIDLSSYAMGWVRQAPGKGLEYIGIVTYAGSAYYASWARGRFTISKTSTTVDLKITSPTTEDTATYFCARGVDNFYTLPDAFDPWGPGTLVTVS
VL: AYDMTQTPASVSAAVGGTVTINCQASQSISRFLSWYQQKPGQRPKLLIYRASTLASGVSSRFEGSGSGTQFTLTISGVECADAATYYCQQGDTYINVDNPFGGGTEVVVK
notes: as for B1
On to B3, for which the binding result with CD22 on Raji细胞 was “binds”. In addition, in the test with CD22 FC融合标签蛋白 [2], the OD450 worked out at 1.93. The molecule also came in with an ELISA reading (OD) at dilution 25K with CD22 FC融合标签蛋白 [3] of 3.52. In the test with CD22 FC融合标签蛋白 [4], this molecule registered an ELISA reading (OD) at dilution 125K of 1.92. For the same molecule, the ELISA reading (OD) at dilution 625K with CD22 FC融合标签蛋白 [5] was 0.528. Also, the ELISA reading (OD) at dilution 3125k in the test with CD22 FC融合标签蛋白 [6] is 0.203. The molecule further displayed an ELISA reading (OD) at dilution 15625k with CD22 FC融合标签蛋白 [7] of 0.146.
